# Source: doi:10.1101/2023.07.15.549169
# T1: His-tagged SMAD4 R361H, Q13485
# T1 chain: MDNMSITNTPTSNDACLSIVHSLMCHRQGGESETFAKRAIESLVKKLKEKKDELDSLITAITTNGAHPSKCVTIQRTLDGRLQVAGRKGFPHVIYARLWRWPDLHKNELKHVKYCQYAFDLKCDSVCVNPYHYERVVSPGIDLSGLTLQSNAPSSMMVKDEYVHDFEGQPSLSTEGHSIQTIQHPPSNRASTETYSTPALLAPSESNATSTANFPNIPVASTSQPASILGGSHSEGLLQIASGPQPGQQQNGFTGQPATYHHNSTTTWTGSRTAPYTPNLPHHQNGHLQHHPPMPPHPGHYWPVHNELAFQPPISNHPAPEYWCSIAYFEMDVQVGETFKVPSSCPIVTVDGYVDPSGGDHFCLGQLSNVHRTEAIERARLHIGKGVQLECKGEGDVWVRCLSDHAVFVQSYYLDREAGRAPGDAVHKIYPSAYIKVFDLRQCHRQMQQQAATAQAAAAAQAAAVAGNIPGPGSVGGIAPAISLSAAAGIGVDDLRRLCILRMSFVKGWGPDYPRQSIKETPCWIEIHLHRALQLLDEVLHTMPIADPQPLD
# T2: His-tagged SMAD4 WT (Mothers against decapentaplegic homolog 4), Q13485
# T2 chain: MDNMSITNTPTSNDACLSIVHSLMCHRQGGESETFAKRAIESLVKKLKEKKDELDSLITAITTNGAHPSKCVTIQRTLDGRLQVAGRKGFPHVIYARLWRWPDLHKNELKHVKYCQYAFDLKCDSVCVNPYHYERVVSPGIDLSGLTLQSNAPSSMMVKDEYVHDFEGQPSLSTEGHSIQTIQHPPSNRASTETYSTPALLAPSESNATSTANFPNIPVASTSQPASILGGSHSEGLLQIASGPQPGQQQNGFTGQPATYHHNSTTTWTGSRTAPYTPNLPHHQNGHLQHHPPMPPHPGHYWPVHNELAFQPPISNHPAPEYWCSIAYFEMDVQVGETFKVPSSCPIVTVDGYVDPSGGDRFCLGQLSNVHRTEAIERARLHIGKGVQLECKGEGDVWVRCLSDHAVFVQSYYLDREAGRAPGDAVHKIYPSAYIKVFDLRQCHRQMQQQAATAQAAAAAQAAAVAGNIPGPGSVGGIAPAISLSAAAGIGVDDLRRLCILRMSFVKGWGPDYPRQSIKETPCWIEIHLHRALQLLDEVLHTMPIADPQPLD
# T3: His-tagged SMAD4 R361C, Q13485
# T3 chain: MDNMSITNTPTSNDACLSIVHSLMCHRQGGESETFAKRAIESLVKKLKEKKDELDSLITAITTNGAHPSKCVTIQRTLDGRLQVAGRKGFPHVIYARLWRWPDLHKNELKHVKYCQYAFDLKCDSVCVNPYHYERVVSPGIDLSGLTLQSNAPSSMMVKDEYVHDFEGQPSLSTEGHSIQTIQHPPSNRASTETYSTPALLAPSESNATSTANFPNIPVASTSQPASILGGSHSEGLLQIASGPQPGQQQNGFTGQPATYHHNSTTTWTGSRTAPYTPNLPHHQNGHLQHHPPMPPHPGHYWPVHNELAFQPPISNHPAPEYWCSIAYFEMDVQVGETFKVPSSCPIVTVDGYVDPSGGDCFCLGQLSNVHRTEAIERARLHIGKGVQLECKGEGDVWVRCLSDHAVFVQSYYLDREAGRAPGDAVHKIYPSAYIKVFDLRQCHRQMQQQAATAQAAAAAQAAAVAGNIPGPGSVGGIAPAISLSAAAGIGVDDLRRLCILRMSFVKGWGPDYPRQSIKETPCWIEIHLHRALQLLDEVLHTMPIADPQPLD
# Key:
# Experiment in all cases: AlphaScreen or HTRF
# Settings in all cases: remark: other sources report otherwise
# [1] = target: T1, His-tagged SMAD4 R361H, Q13485
# [2] = target: T2, His-tagged SMAD4 WT (Mothers against …)
# [3] = target: T3, His-tagged SMAD4 R361C, Q13485
binder,measurement,setting,value
"Flag-tagged SMAD3 WT, P84022 1-425 (natural protein) MSSILPFTPPIVKRLLGWKKGEQNGQEEKWCEKAVKSLVKKLKKTGQLDELEKAITTQNVNTKCITIPRSLDGRLQVSHRKGLPHVIYCRLWRWPDLHSHHELRAMELCEFAFNMKKDEVCVNPYHYQRVETPVLPPVLVPRHTEIPAEFPPLDDYSHSIPENTNFPAGIEPQSNIPETPPPGYLSEDGETSDHQMNHSMDAGSPNLSPNPMSPAHNNLDLQPVTYCEPAFWCSISYYELNQRVGETFHASQPSMTVDGFTDPSNSERFCLGLLSNVNRNAAVELTRRHIGRGVRLYYIGGEVFAECLSDSAIFVQSPNCNQRYGWHPATVCKIPPGCNLKIFNNQEFAALLAQSVNQGFEAVYQLTRMCTIRMSFVKGWGAEYRRQTVTSTPCWIELHLNGPLQWLDKVLTQMGSPSIRCSSVS",reduction of the PPI signal against SMAD4 WT,[1],75%
same,decrease of the PPI signal with 5'-FAM-SBE4 Mut dsDNA against WT dsDNA,[2],15%
same,reduction of the PPI signal against SMAD4 WT,[3],75%
